The record followed here is US20090169520.

Series [1] has as its target synthetic Aβ (1-40) peptide (Biosource), P05067.
For series [2], the target named is T1, Amylin (islet amyloid polypeptide, IAPP), P10997.
T1 chain: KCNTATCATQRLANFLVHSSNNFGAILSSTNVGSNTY

Chain of synthetic Aβ (1-40) peptide (Biosource), P05067 (P05067 whole entry, looked up, tested part not stated): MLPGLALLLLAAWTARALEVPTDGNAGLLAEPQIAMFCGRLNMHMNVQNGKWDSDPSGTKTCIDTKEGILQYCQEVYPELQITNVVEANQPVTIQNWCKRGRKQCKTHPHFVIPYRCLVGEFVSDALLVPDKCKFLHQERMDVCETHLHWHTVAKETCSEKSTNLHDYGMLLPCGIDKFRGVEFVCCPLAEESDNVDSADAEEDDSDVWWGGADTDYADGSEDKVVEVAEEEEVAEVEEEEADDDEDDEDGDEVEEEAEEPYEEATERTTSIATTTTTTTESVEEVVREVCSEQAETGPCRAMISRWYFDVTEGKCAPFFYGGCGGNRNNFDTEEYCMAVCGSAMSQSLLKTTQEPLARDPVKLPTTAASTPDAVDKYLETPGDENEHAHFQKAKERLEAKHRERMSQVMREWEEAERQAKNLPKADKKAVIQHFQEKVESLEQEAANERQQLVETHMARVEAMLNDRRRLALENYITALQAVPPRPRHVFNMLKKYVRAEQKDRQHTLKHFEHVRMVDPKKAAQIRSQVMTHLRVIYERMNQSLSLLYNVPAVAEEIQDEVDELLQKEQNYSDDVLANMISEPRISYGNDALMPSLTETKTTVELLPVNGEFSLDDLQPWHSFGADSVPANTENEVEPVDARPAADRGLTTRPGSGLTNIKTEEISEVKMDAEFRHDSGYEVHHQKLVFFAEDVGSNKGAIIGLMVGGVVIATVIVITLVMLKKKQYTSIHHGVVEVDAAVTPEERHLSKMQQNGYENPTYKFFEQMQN

B1: recombinant human AChE-S (synaptic acetylcholinesterase) (protein)
chain: EGREDAELLVTVRGGRLRGIRLKTPGGPVSAFLGIPFAEPPMGPRRFLPPEPKQPWSGVVDATTFQSVCYQYVDTLYPGFEGTEMWNPNRELSEDCLYLNVWTPYPRPTSPTPVLVWIYGGGFYSGASSLDVYDGRFLVQAERTVLVSMNYRVGAFGFLALPGSREAPGNVGLLDQRLALQWVQENVAAFGGDPTSVTLFGESAGAASVGMHLLSPPSRGLFHRAVLQSGAPNGPWATVGMGEARRRATQLAHLVGCPPGGTGGNDTELVACLRTRPAQVLVNHEWHVLPQESVFRFSFVPVVDGDFLSDTPEALINAGDFHGLQVLVGVVKDEGSYFLVYGAPGFSKDNESLISRAEFLAGVRVGVPQVSDLAAEAVVLHYTDWLHPEDPARLREALSDVVGDHNVVCPVAQLAGRLAAQGARVYAYVFEHRASTLSWPLWMGVPHGYEIEFIFGIPLDPSRNYTAEEKIFAQRLMRYWANFARTGDPNEPRDPKAPQWPPYTAGAQQYVSLDLRPLEVRRGLRAQACAFWNRFLPKLLSATDTLDEAERQWKAEFHRWSSYMVHWKNQFDHYSKQDRCSDL
For B1, in series [1], the Lag (fold change) of Aβ fibrillation against no addition worked out at 0.6 fold; the Lag (h) before onset of Aβ fibrillation (no addition: 4.0 ± 0.3) amounted to 2.5 h; the Rate (FU/h) of Aβ fibrillation, ThT fluorescence, 33 µM Aβ, AChE-S at 25.8 mg/L (no addition: 3.4 ± 0.4) was 7 FU/h; the Rate (fold change) of Aβ fibrillation against no addition came to 2.1 fold.

B2: purified human BChE (butyrylcholinesterase, from human serum; Sigma) (protein)
chain: EDDIIIATKNGKVRGMNLTVFGGTVTAFLGIPYAQPPLGRLRFKKPQSLTKWSDIWNATKYANSCCQNIDQSFPGFHGSEMWNPNTDLSEDCLYLNVWIPAPKPKNATVLIWIYGGGFQTGTSSLHVYDGKFLARVERVIVVSMNYRVGALGFLALPGNPEAPGNMGLFDQQLALQWVQKNIAAFGGNPKSVTLFGESAGAASVSLHLLSPGSHSLFTRAILQSGSFNAPWAVTSLYEARNRTLNLAKLTGCSRENETEIIKCLRNKDPQEILLNEAFVVPYGTPLSVNFGPTVDGDFLTDMPDILLELGQFKKTQILVGVNKDEGTAFLVYGAPGFSKDNNSIITRKEFQEGLKIFFPGVSEFGKESILFHYTDWVDDQRPENYREALGDVVGDYNFICPALEFTKKFSEWGNNAFFYYFEHRSSKLPWPEWMGVMHGYEIEFVFGLPLERRDNYTKAEEILSRSIVKRWANFAKYGNPNETQNNSTSWPVFKSTEQKYLTLNTESTRIMTKLRAQQCRFWTSFFPKVLEMTGNIDEAEWEWKAGFHRWNNYMMDWKNQFNDYTSKKESCVGL
B2: in series [1], the “Aβ fibril formation in a mix of 33 µM Aβ with 0.36 µM AChE-S and increasing doses of hBChE (ThT fluorescence)” value is on record as “a dose-dependent interference with the fibril formation process was observed”; the Lag (fold change) of Aβ fibrillation against no addition was 1.4 fold; the Lag (h) before onset of Aβ fibrillation was determined as 5.6 h; the Rate (FU/h) of Aβ fibrillation, ThT fluorescence, BChE at 27.4 mg/L came to 1.1 FU/h. Further, in series [1], the Rate (fold change) of Aβ fibrillation against no addition worked out at 0.3 fold; the “concentration needed for a complete attenuation of Aβ fibrillation (for 400 minutes)” value is “as compared with 30 µg/ml of the complete BChE enzyme”; the “time for which Aβ fibril formation was totally prevented (0.4 µM BChE, 33 µM Aβ, ThT fluorescence)” value is “addition of 0.4 µM BChE to 33 µM Aβ totally prevented fibril formation for over 600 minutes”. Moreover, in series [2], the “lag time of amylin amyloid fibril formation with 0.24 µM BChE (30 minutes without)” value is given as “increased the lag time of amyloid fibril formation from 30 minutes to 110 minutes” and the “time for which amylin fibril formation was completely attenuated (20 µM amylin, 0.24 µM BChE, ThT fluorescence)” value was “BChE completely attenuated the formation of amylin fibrils for 100 minutes”.
